Measurements from the supplement of paper PMC9112550, “Optimization of the antimicrobial peptide Bac7 by deep mutational scanning” (BMC Biology, 2022).

System: Escherichia coli TOP10
Assay: shrunken log2 fold change of peptide-encoding DNA abundance (4.5 h post-induction vs induction); higher = less antimicrobial activity (less host growth inhibition)
Conditions: time post-induction: 4.5 h; library: site-saturation at positions 5, 18, 19, 20
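Further: peptides expressed intracellularly from a pBAD plasmid library in pooled LB shake-flask culture, induced with 0.3% L-arabinose, DNA abundance read by NGS, three biological replicates, DESeq2 with apeglm shrinkage.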

| Sequence | shrunken log2 fold change |
| --- | --- |
| RRIRDRPPRLPRPRPRPQAGPRP | 0.152 |
| RRIRFRPPRLPRPRPRPCVQPRP | -0.182 |
| RRIRARPPRLPRPRPRPINDPRP | 0.00287 |
| RRIRRRPPRLPRPRPRPCMIPRP | -0.108 |
| RRIRHRPPRLPRPRPRPPRSPRP | 0.704 |
| RRIRKRPPRLPRPRPRPNDIPRP | 0.0543 |
| RRIRLRPPRLPRPRPRPYMTPRP | -0.82 |
| RRIRIRPPRLPRPRPRPMVWPRP | 0.0906 |
| RRIRNRPPRLPRPRPRPGIWPRP | 0.0115 |
| RRIRDRPPRLPRPRPRPPDYPRP | -0.0704 |
| RRIRRRPPRLPRPRPRPSQAPRP | 0.113 |
| RRIRRRPPRLPRPRPRPMYRPRP | 0.0278 |
| RRIRHRPPRLPRPRPRPFSHPRP | -0.254 |
| RRIRFRPPRLPRPRPRPTHKPRP | -0.0458 |
| RRIRHRPPRLPRPRPRPTAWPRP | 0.0946 |
| RRIRKRPPRLPRPRPRPDWKPRP | -0.0149 |
| RRIRRRPPRLPRPRPRPFSGPRP | -0.32 |
| RRIRGRPPRLPRPRPRPIFLPRP | 0.0935 |
| RRIRKRPPRLPRPRPRPLFEPRP | 0.513 |
| RRIRGRPPRLPRPRPRPRPCPRP | 0.676 |
| RRIRFRPPRLPRPRPRPWDKPRP | -1.33 |
| RRIRNRPPRLPRPRPRPRKNPRP | 0.161 |
| RRIRTRPPRLPRPRPRPTKGPRP | -0.183 |
| RRIRDRPPRLPRPRPRPDFKPRP | 0.00362 |
| RRIRGRPPRLPRPRPRPQLNPRP | 0.368 |

| Sequence | shrunken log2 fold change |
| --- | --- |
| RRIRFRPPRLPRPRPRPTGHPRP | -0.287 |
| RRIRHRPPRLPRPRPRPQWKPRP | -0.0774 |
| RRIRGRPPRLPRPRPRPFYMPRP | -0.0339 |
| RRIRVRPPRLPRPRPRPTRTPRP | 0.495 |
| RRIRLRPPRLPRPRPRPIHWPRP | 0.143 |
| RRIRARPPRLPRPRPRPNAMPRP | 0.272 |
| RRIRIRPPRLPRPRPRPCPAPRP | -0.247 |
| RRIRWRPPRLPRPRPRPDPTPRP | 0.691 |
| RRIRCRPPRLPRPRPRPDWEPRP | -0.524 |
| RRIRTRPPRLPRPRPRPYTSPRP | -0.00661 |
| RRIRCRPPRLPRPRPRPMEQPRP | -0.00403 |
| RRIRSRPPRLPRPRPRPRMEPRP | 0.0338 |
| RRIRDRPPRLPRPRPRPGELPRP | 0.684 |
| RRIRHRPPRLPRPRPRPVHCPRP | -0.159 |
| RRIRHRPPRLPRPRPRPHWGPRP | -0.123 |
| RRIRRRPPRLPRPRPRPSSDPRP | 0.0273 |
| RRIRTRPPRLPRPRPRPHVWPRP | 0.272 |
| RRIRERPPRLPRPRPRPNHGPRP | -0.348 |
| RRIRGRPPRLPRPRPRPVLKPRP | 0.402 |
| RRIRKRPPRLPRPRPRPCVRPRP | -0.215 |
| RRIRDRPPRLPRPRPRPTMFPRP | 0.0915 |
| RRIRFRPPRLPRPRPRPHWGPRP | -0.0695 |
| RRIRSRPPRLPRPRPRPDAKPRP | 0.0687 |
| RRIRGRPPRLPRPRPRPQMFPRP | 0.612 |
| RRIRMRPPRLPRPRPRPPWDPRP | 0.931 |

| Sequence | shrunken log2 fold change |
| --- | --- |
| RRIRWRPPRLPRPRPRPSVVPRP | -0.00267 |
| RRIRFRPPRLPRPRPRPHPKPRP | 0.827 |
| RRIRHRPPRLPRPRPRPWRCPRP | -0.221 |
| RRIRDRPPRLPRPRPRPVMQPRP | 0.023 |
| RRIRCRPPRLPRPRPRPEHGPRP | 0.11 |
| RRIRWRPPRLPRPRPRPCQRPRP | 1.03 |
| RRIRLRPPRLPRPRPRPTKCPRP | -0.0436 |
| RRIRERPPRLPRPRPRPSIIPRP | -0.188 |
| RRIRDRPPRLPRPRPRPDPDPRP | 0.671 |
| RRIRVRPPRLPRPRPRPTSRPRP | -0.139 |
| RRIRPRPPRLPRPRPRPHIQPRP | -0.312 |
| RRIRERPPRLPRPRPRPRQVPRP | -0.0483 |
| RRIRMRPPRLPRPRPRPLQVPRP | 0.21 |
| RRIRNRPPRLPRPRPRPASNPRP | -0.065 |
| RRIRFRPPRLPRPRPRPHVMPRP | -0.288 |
| RRIRQRPPRLPRPRPRPEFFPRP | 0.0969 |
| RRIRSRPPRLPRPRPRPIDRPRP | 0.0178 |
| RRIRNRPPRLPRPRPRPEKDPRP | -0.0532 |
| RRIRCRPPRLPRPRPRPRFFPRP | 0.191 |
| RRIRWRPPRLPRPRPRPCSEPRP | -0.206 |
| RRIRSRPPRLPRPRPRPEISPRP | -0.094 |
| RRIRVRPPRLPRPRPRPSSRPRP | -0.231 |
| RRIRQRPPRLPRPRPRPGYRPRP | -0.354 |
| RRIRLRPPRLPRPRPRPMYGPRP | -0.179 |
| RRIRARPPRLPRPRPRPSAWPRP | 0.797 |

| Sequence | shrunken log2 fold change |
| --- | --- |
| RRIRQRPPRLPRPRPRPAGDPRP | 0.127 |
| RRIRRRPPRLPRPRPRPDGAPRP | 0.766 |
| RRIRFRPPRLPRPRPRPYAWPRP | -0.134 |
| RRIRYRPPRLPRPRPRPGEYPRP | -0.0574 |
| RRIRRRPPRLPRPRPRPHAVPRP | 0.251 |
| RRIRTRPPRLPRPRPRPDCFPRP | -0.138 |
| RRIRPRPPRLPRPRPRPINCPRP | -0.126 |
| RRIRWRPPRLPRPRPRPGPPPRP | 0.671 |
| RRIRDRPPRLPRPRPRPQFNPRP | -0.195 |
| RRIRNRPPRLPRPRPRPNAKPRP | -0.109 |
| RRIRTRPPRLPRPRPRPTSMPRP | 0.308 |
| RRIRERPPRLPRPRPRPIPYPRP | -0.00829 |
| RRIRIRPPRLPRPRPRPYARPRP | -1.22 |
| RRIRLRPPRLPRPRPRPEAFPRP | 0.0443 |
| RRIRNRPPRLPRPRPRPRLRPRP | 0.0785 |
| RRIRGRPPRLPRPRPRPAITPRP | 0.721 |
| RRIRSRPPRLPRPRPRPLLCPRP | -0.039 |
| RRIRYRPPRLPRPRPRPTRTPRP | -0.0719 |
| RRIRIRPPRLPRPRPRPDLMPRP | -0.396 |
| RRIRTRPPRLPRPRPRPNMVPRP | -0.0672 |
| RRIRMRPPRLPRPRPRPNDQPRP | 0.0566 |
| RRIRWRPPRLPRPRPRPNQVPRP | 0.0796 |
| RRIRTRPPRLPRPRPRPGNIPRP | -0.0496 |
| RRIRCRPPRLPRPRPRPQNCPRP | 0.137 |
| RRIRDRPPRLPRPRPRPAAQPRP | 1.65 |

| Sequence | shrunken log2 fold change |
| --- | --- |
| RRIRTRPPRLPRPRPRPGVYPRP | -0.116 |
| RRIRSRPPRLPRPRPRPFGQPRP | -0.197 |
| RRIRFRPPRLPRPRPRPMDQPRP | -0.247 |
| RRIRCRPPRLPRPRPRPDSQPRP | -0.203 |
| RRIRTRPPRLPRPRPRPPDQPRP | 0.601 |
| RRIRWRPPRLPRPRPRPPDVPRP | 0.235 |
| RRIRHRPPRLPRPRPRPFEAPRP | -0.214 |
| RRIRHRPPRLPRPRPRPFYPPRP | -0.623 |
| RRIRMRPPRLPRPRPRPWTMPRP | 0.0064 |
| RRIRDRPPRLPRPRPRPHHEPRP | 0.0131 |
| RRIRVRPPRLPRPRPRPMYHPRP | -0.0185 |
| RRIRTRPPRLPRPRPRPSDRPRP | -0.138 |
| RRIRDRPPRLPRPRPRPHKDPRP | -0.239 |
| RRIRMRPPRLPRPRPRPTWVPRP | 0.496 |
| RRIRFRPPRLPRPRPRPGTSPRP | -0.0716 |
| RRIRCRPPRLPRPRPRPGAVPRP | 0.202 |
| RRIRIRPPRLPRPRPRPLPSPRP | -0.0327 |
| RRIRLRPPRLPRPRPRPRYRPRP | -0.374 |
| RRIRTRPPRLPRPRPRPIMKPRP | -0.253 |
| RRIRWRPPRLPRPRPRPKDGPRP | 0.00598 |
| RRIRTRPPRLPRPRPRPGYPPRP | -0.197 |
| RRIRRRPPRLPRPRPRPAGSPRP | 0.384 |
| RRIRKRPPRLPRPRPRPICQPRP | -0.0166 |
| RRIRDRPPRLPRPRPRPDWDPRP | 4.78 |
| RRIRKRPPRLPRPRPRPYNNPRP | -0.286 |
